The record followed here is patent US20190119379A1 (BAYLOR COLLEGE OF MEDICINE, published 2019).

The assay concerns the target T1, human CD47 on OV10 315 cells (human, UniProt Q08722 19-323).
T1 construct: whole, on cells
The experiment in a line: FACS for Fc on YFP-negative OV10 315 cells 24 h after infection with SIRPα-Fc-VV.

T1 sequence (Q08722 19-323): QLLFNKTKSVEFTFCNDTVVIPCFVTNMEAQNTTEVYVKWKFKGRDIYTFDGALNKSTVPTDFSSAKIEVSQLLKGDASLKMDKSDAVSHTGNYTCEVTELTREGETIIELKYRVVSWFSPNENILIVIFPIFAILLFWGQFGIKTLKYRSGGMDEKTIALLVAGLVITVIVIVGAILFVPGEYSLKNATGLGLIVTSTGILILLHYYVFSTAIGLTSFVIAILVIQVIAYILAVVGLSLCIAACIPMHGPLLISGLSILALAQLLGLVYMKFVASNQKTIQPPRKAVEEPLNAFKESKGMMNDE

B1: SIRPα-IgG4 Fc with derivative (CV1) of SIRPα ectodomain (Fc fusion)
chain: EEELQIIQPDKSVLVAAGETATLRCTITSLFPVGPIQWFRGAGPGRVLIYNQRQGPFPRVTTVSDTTKRNNMDFSIRIGNITPADAGTYYCIKFRKGSPDDVEFKSGAGTELSVRAKPSAAAPPCPPCPAPEFLGGPSVFLFPPKPKDTLMISRTPEVTCVVVDVSQEDPEVQFNWYVDGVEVHNAKTKPREEQFNSTYRVVSVLTVLHQDWLNGKEYKCKVSNKGLPSSIEKTISKAKGQPREPQVYTLPPSQEEMTKNQVSLTCLVKGFYPSDIAVEWESNGQPENNYKTTPPVLDSDGSFFLYSRLTVDKSRWQEGNVFSCSVMHEALHNHYTQKSLSLSPGK
notes: Secreted by tumor cells transduced with the lentiviral vector pCDH.CMV.SIRPα-Fc.EF1.GFPpuro or infected with SIRPα-Fc-VV; It was never purified; also called SIRPα-Fc; SIRPα-FC
Take B1: the binding result is reported as “binds”.
